Legend:
[1] = system: c-Abl (mouse); assay: phosphorylation enrichment, bacterial display (enrichment ratio); higher = better substrate or ligand; peptides without Tyr show the background
[2] = target: MERTK (UniProt Q12866); assay: as above
[3] = target: FGFR3 (UniProt P22607); assay: as above
[4] = system: c-Src; assay: as above
[5] = target: Fyn (UniProt P06241); assay: as above
[6] = target: Hck (UniProt P08631); assay: as above
[7] = target: Jak2 (UniProt O60674); assay: as above
[8] = system: Fer (mouse); assay: as above
[9] = target: Fes (UniProt P07332); assay: as above
Sequence of Fes (P07332 whole entry, looked up): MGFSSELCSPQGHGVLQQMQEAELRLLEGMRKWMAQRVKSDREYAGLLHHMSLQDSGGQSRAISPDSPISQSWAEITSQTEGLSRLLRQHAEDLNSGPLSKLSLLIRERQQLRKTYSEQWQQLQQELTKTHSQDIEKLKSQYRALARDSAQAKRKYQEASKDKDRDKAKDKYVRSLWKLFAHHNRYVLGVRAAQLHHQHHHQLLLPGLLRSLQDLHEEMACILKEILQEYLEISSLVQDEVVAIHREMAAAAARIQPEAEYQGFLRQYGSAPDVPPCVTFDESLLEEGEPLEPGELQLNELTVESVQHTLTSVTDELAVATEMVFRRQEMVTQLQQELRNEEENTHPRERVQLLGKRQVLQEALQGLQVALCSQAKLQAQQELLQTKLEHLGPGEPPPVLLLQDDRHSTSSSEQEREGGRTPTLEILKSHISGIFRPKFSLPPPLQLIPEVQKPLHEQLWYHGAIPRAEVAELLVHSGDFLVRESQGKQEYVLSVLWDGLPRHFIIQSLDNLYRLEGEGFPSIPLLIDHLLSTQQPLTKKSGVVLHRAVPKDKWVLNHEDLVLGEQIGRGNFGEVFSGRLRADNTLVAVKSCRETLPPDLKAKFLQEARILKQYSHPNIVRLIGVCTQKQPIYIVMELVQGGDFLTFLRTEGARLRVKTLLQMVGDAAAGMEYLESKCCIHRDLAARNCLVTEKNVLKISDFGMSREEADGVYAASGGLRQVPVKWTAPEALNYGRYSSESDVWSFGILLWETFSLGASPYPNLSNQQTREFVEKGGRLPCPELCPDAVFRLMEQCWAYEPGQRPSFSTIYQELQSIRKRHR

[10] = target: FGFR1 (UniProt P11362); assay: as above
[11] = system: AncSZ; assay: as above
[12] = target: EPHB2 (UniProt P29323); assay: as above
Sequence of EPHB2 (P29323 whole entry, looked up): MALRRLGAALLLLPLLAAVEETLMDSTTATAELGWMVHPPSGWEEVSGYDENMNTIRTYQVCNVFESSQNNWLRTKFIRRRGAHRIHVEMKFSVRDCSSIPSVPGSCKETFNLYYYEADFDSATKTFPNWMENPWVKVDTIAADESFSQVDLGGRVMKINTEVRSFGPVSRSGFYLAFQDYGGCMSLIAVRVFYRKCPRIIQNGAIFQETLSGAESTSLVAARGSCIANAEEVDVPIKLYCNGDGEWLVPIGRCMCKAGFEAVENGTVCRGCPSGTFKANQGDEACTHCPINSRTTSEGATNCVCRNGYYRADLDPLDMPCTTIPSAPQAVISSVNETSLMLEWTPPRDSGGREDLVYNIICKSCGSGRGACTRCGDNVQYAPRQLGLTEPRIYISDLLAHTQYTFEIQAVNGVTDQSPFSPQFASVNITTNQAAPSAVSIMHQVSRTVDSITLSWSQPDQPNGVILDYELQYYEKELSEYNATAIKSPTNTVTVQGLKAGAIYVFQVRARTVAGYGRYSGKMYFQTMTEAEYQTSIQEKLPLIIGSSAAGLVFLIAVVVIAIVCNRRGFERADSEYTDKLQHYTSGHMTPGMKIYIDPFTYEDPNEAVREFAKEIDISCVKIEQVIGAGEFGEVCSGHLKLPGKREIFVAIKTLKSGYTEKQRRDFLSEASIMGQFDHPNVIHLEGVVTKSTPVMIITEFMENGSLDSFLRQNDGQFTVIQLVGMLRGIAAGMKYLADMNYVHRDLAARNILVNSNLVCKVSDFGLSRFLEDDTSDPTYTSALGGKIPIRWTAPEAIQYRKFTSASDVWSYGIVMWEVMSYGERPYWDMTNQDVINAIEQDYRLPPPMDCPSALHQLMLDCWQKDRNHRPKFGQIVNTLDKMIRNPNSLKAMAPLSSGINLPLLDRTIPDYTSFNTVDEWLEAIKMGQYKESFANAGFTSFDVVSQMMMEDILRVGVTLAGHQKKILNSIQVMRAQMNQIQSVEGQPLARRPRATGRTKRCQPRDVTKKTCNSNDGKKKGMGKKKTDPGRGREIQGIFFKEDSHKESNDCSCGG

[13] = target: EPHB1 (UniProt P54762); assay: as above
Sequence of EPHB1 (P54762 whole entry, looked up): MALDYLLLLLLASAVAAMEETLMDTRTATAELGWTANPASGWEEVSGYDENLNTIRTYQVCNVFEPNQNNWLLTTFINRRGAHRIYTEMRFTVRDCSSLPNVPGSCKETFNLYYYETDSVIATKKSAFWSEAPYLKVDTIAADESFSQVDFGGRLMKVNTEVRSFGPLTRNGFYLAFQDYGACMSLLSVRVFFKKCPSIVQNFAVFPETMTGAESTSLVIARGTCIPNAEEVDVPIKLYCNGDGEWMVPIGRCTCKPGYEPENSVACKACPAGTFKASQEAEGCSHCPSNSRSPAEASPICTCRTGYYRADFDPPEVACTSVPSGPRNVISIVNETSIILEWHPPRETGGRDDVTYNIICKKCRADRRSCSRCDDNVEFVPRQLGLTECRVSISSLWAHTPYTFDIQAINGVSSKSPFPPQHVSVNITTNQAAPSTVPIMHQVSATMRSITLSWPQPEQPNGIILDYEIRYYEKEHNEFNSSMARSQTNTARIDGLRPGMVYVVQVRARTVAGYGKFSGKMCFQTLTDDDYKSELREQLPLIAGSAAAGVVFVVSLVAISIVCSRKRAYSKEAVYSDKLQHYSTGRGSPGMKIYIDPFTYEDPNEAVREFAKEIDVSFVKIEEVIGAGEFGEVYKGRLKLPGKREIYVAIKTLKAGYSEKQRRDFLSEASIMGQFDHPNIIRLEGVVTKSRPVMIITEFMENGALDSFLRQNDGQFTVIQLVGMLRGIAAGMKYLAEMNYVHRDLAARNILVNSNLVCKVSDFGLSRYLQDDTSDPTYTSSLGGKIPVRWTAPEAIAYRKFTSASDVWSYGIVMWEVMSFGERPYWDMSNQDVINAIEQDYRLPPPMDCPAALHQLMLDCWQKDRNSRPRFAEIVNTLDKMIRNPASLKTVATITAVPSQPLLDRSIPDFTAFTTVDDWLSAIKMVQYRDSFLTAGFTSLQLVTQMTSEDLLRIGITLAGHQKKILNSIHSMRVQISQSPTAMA

[14] = target: Grb2 SH2 (UniProt P62993); assay: SH2 binding enrichment of the phosphorylated peptide, bacterial display (enrichment ratio); higher = better substrate or ligand; peptides without Tyr show the background
[15] = target: c-Src SH2; assay: as above
[16] = target: SHP2-C SH2; assay: as above
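For SH2 binding enrichment of the phosphorylated peptide, bacterial display in this document: peptide library displayed on the E. coli surface as eCPX fusions, selected cells deep-sequenced, score is each peptide's frequency after selection divided by its frequency in the input.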
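For phosphorylation enrichment, bacterial display in this document: 11-residue human phosphosite peptides and single-mutation variants displayed on the E. coli surface, counted by deep sequencing, each peptide's frequency after selection divided by its frequency in the unselected input library; frequency after pTyr selection over input frequency; kinase dosed for 20-30% of maximal phosphorylation in three min.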

Sequence of Jak2 (O60674 whole entry, looked up): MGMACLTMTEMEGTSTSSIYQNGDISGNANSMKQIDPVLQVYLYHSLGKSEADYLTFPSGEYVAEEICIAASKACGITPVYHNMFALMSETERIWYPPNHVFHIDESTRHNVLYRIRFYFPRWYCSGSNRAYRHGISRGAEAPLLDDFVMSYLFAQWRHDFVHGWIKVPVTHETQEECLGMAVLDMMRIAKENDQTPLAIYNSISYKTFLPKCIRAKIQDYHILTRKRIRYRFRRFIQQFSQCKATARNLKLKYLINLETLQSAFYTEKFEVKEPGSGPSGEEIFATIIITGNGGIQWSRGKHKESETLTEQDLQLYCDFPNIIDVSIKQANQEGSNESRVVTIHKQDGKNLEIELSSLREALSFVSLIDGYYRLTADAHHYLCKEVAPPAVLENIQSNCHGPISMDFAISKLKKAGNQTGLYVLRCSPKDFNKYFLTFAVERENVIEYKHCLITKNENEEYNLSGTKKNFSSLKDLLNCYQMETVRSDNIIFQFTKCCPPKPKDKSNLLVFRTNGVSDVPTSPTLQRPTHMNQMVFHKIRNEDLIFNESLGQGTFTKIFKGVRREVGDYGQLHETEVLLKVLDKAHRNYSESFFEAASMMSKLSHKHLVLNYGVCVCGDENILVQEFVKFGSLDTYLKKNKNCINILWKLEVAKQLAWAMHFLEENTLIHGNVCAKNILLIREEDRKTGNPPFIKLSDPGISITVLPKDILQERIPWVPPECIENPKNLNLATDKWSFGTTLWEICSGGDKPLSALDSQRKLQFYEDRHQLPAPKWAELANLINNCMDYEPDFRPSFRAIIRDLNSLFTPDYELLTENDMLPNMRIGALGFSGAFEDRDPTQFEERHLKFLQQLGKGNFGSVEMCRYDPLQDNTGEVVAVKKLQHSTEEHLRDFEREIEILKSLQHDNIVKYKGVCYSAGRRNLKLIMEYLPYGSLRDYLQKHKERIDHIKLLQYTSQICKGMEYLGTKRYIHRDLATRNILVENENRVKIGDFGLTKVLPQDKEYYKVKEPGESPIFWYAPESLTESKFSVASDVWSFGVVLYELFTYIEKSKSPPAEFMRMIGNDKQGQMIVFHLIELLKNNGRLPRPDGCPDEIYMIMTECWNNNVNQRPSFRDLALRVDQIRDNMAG
Sequence of FGFR3 (P22607 whole entry, looked up): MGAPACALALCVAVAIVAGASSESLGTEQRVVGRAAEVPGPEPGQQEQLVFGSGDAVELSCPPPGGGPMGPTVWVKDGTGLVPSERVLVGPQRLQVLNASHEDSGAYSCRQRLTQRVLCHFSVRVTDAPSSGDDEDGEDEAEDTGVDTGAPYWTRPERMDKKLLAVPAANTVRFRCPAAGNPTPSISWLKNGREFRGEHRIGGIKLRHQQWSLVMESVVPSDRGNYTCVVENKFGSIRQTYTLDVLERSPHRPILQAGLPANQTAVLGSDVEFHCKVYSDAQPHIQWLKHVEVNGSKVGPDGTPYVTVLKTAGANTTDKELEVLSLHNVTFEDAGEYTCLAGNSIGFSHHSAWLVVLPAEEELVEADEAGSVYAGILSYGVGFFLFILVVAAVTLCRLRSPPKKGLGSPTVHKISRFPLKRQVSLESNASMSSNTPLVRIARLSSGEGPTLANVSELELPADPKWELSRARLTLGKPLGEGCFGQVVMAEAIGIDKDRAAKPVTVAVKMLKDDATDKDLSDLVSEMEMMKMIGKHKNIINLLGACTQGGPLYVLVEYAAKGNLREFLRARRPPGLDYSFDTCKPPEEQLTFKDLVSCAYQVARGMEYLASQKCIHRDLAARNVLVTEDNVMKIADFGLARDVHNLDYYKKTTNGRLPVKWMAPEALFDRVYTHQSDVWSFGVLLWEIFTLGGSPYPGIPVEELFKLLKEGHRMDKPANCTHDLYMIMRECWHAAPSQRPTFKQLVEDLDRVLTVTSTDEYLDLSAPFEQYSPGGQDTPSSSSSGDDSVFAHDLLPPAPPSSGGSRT

Row | Sequence | SH2 binding enrichment [14] | SH2 binding enrichment [15] | SH2 binding enrichment [16] | phosphorylation enrichment [1] | phosphorylation enrichment [2] | phosphorylation enrichment [3] | phosphorylation enrichment [4] | phosphorylation enrichment [5] | phosphorylation enrichment [6] | phosphorylation enrichment [7] | phosphorylation enrichment [8] | phosphorylation enrichment [9] | phosphorylation enrichment [10] | phosphorylation enrichment [11] | phosphorylation enrichment [12] | phosphorylation enrichment [13]
1 | VREIRCQGGNR [VWF_Y1570_Y1570C] | 0.963 | 0.477 | 0.591 | 0.675 | 0.406 | 0.419 | 0.5 | 0.401 | 0.465 | 0.771 | 0.296 | 0.682 | 0.478 | 0.648 | 0.432 | 0.416
2 | KVNKIYYPDFI [LIG3_Y767] | 0.834 | 0.636 | 0.695 | 0.589 | 1.05 | 3.46 | 0.724 | 0.607 | 0.668 | 0.68 | 0.481 | 0.762 | 4.13 | 0.727 | 0.45 | 0.536
3 | SWDKRYCEAGF [ITGA2B_Y197] | 1.07 | 0.812 | 0.569 | 0.687 | 0.455 | 0.561 | 0.426 | 0.509 | 0.648 | 0.888 | 0.531 | 1.28 | 0.506 | 0.892 | 0.692 | 0.867
4 | AALSAYAAQRP [PTPRN2_Y249] | 0.813 | 0.457 | 0.662 | 0.377 | 0.312 | 0.433 | 0.315 | 0.305 | 0.386 | 0.462 | 0.347 | 0.491 | 0.406 | 0.439 | 0.353 | 0.299
5 | PSELFYSKISP [SMG1_Y2254_G2258S_YF] | 0.854 | 3.17 | 3.93 | 3.5 | 13.6 | 2.72 | 3.48 | 2.06 | 8.64 | 2.3 | 11.3 | 0.972 | 3.79 | 1.15 | 1.52 | 1.59
6 | FTNELYMMMRD [FGFR1_Y730_C725Y_YF] | 0.844 | 0.604 | 0.661 | 0.57 | 3.53 | 1.53 | 1.29 | 1.1 | 1.99 | 0.938 | 0.752 | 1.24 | 1.54 | 1.37 | 1.69 | 3.18
7 | LRNIDYHRLDG [ATRX_Y2083_Y2084H] | 0.725 | 0.714 | 1.25 | 0.521 | 0.379 | 0.617 | 0.297 | 0.342 | 0.33 | 0.632 | 0.571 | 0.606 | 0.511 | 0.497 | 0.405 | 0.42
8 | RRAKGYPIFLF [ITGB2_Y125_D128Y_YF] | 0.62 | 0.582 | 0.679 | 0.854 | 0.524 | 0.63 | 0.857 | 0.624 | 0.548 | 1.12 | 0.581 | 0.741 | 0.561 | 0.632 | 0.739 | 0.351

Further lines, with some results ahead:

Row | SH2 binding enrichment [14] | SH2 binding enrichment [15] | SH2 binding enrichment [16] | Sequence | phosphorylation enrichment [1] | phosphorylation enrichment [2] | phosphorylation enrichment [3] | phosphorylation enrichment [4] | phosphorylation enrichment [5] | phosphorylation enrichment [6] | phosphorylation enrichment [7] | phosphorylation enrichment [8] | phosphorylation enrichment [9] | phosphorylation enrichment [10] | phosphorylation enrichment [11] | phosphorylation enrichment [12] | phosphorylation enrichment [13]
9 | 0.882 | 1.92 | 0.79 | AAAAVYTFLPD [MYORG_Y36_M35V] | 1.12 | 9.47 | 10.6 | 7.02 | 8.32 | 6.52 | 0.979 | 1.85 | 1.2 | 12.4 | 1.48 | 2.45 | 3.68
10 | 0.599 | 0.428 | 0.71 | ERNARYRTPKI [PTK2B_Y699] | 0.527 | 0.697 | 0.369 | 0.351 | 0.33 | 0.351 | 0.409 | 0.313 | 0.515 | 0.316 | 0.562 | 0.276 | 0.314
11 | 0.735 | 0.564 | 0.639 | EREYKYGAHKY [OAT_Y50_N54K] | 0.571 | 0.436 | 0.441 | 0.359 | 0.369 | 0.392 | 0.509 | 0.398 | 0.625 | 0.414 | 0.626 | 0.452 | 0.376
12 | 0.651 | 0.992 | 0.789 | RAKLFYQEVPA [METTL11B_Y76] | 0.513 | 6.6 | 2.39 | 0.385 | 0.716 | 1.67 | 0.547 | 1.64 | 1.02 | 2.88 | 1.95 | 1.9 | 2.91
13 | 0.605 | 0.385 | 0.781 | PDGREYIYVDP [PDGFRA_Y572_H570R] | 1.93 | 1.42 | 5.18 | 1.77 | 1.07 | 1.28 | 1.88 | 0.983 | 1.35 | 8.67 | 3.36 | 2.74 | 3.98
14 | 0.708 | 0.699 | 0.724 | QQLDEYQKLLD [LMNA_Y359_E361K] | 1.03 | 0.81 | 1.2 | 0.642 | 0.724 | 0.742 | 1.72 | 0.905 | 1.85 | 0.65 | 1.53 | 1.28 | 1.27
15 | 0.771 | 0.711 | 0.426 | FEDTLYTVLHR [UNC13D_Y61_A59T_YF] | 1.99 | 7.86 | 1.5 | 6.22 | 5.65 | 7.58 | 1.56 | 5.83 | 1.38 | 1.18 | 2.45 | 4.95 | 9.72
16 | 0.875 | 0.448 | 0.903 | AEMKRYAESSS [RAI14_Y869] | 0.483 | 0.336 | 0.441 | 0.382 | 0.471 | 0.403 | 0.582 | 0.372 | 0.778 | 0.467 | 0.607 | 0.394 | 0.45

Reference: the supplement of paper PMC10065799, “High-throughput profiling of sequence recognition by tyrosine kinases and SH2 domains using bacterial peptide display” (eLife, 2023)
